{
  "source": "patent US20240218054A1",
  "about": "(MABLOC, published 2024)",
  "biological_target": "T1, recombinant YFV E protein (soluble E, sE; YFV Asibi strain) (Yellow fever virus, Asibi strain, UniProt Q6DV88 286-678)",
  "T1 construct": "also called YFV E antigen; YFV E monomer",
  "T1 sequence (Q6DV88 286-678)": "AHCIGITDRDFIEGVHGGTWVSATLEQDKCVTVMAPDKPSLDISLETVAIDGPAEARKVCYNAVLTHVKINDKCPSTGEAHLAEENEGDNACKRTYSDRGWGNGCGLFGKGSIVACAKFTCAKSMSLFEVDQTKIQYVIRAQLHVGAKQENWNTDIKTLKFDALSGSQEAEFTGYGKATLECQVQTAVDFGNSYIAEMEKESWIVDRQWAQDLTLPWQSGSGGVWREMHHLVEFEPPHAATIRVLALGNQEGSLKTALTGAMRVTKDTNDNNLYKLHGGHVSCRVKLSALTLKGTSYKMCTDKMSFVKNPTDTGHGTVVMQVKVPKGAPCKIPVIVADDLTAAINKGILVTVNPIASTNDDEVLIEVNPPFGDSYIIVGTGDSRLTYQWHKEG",
  "assay": "BLI monovalent (IgG on tip)",
  "data": [
    {"binder": "ADI-50197 (antibody, V domains shown, full-length IgG; also called Antibody Number 120) VH: EVQLVESGGGVVQPGRSLRLSCAASGFTFSSYGMHWVRQAPGKGPEWVAVISEDGNKDHYVDSVKGRFSIYRDNSKSTVFLRMTSLRAEDTAVYYCAKDLTPYFYDSGAFDHWGQGTLVTVSS VL: QSVLTQPPSVSGAPGQRVTISCTGNSSNIGAGYEVHWYQQLPGTAPKLLIYGNNNRPSGVPDRFSGSKSGASGSLAVTGLRAEDEADYYCHSYDSNMSGSVFGGGTKVTVL", "values": [
      {"measurement": "Kd", "value": "> 100", "unit": "nM"}
    ]},
    {"binder": "ADI-48969 (antibody, V domains shown, full-length IgG; also called Antibody Number 12) VH: QVTLKESGGALVKPAGSLTLSCAASGFTFGDYYMSWIRQAPGKGLEWISYISSSGSSIYYTDSVRGRFTISRDNARNSLYLQMNSLRVEDTAVYYCAREFSSRPFDLWGQGTLVTVSS VL: QSVLTQPRSVSGSPGQSVTISCTGTSSDVGAYNFVSWYQQYPGKAPKLMIYDVNKRPSGVPDRFSGSKSGNTASLTISGLQAEDEADYHCCSYAGTYTSNYVFGSGTKVTVL", "values": [
      {"measurement": "Kd", "value": 5.86, "unit": "nM"}
    ]},
    {"binder": "ADI-49032 (antibody, V domains shown, full-length IgG; also called Antibody Number 119) VH: EVQLVQSGGGLVQPGGSLRLSCVGSGLTLSSSAMSWVRQAPGKGLECVSGITGSGSDSSYAASVKGRFTISRDNSKNTVYLQMNSLRAEDTAVYYCAKDLTHRLGSIFGKLTFDAFDIWGPGTMVTVSS VL: DIRLTQSPSTLSASVGDRVTITCRASQSISGWLAWYQQKPGKAPKLLIYKASILESGVPSRFSGSQSGTEFTLTISSLQPDDFATYYCQQYNNFWTFGQGTKLEIK", "values": [
      {"measurement": "Kd", "value": 0.486, "unit": "nM"}
    ]},
    {"binder": "ADI-48894 (antibody, V domains shown, full-length IgG) VH: EVQLVESGGGLVQPGGSLRLSCAVSGFTFSDHYMDWVRQAPGKGLEWVGRSRNKVNSYITEYAASVKGRFSISRDDSKNSLYLQMNSLKIEDTAVYYCARVFGGPTDYWGQGTLVTVSS VL: EIVLTQSPSSLSASVGDRVTITCRASQGISNYLAWYQQKPGKAPKLLIYAASTLQSGVPSRFSGSGSGTDFILTISSLQPEDVATYYCQKYYSAPLITFGPGTKVEIK", "values": [
      {"measurement": "Kd", "value": 95.6, "unit": "nM"}
    ]},
    {"binder": "ADI-46739 (antibody, V domains shown, full-length IgG; also called Antibody Number 124) VH: EVQLVESGPGLVKPSGTLSLTCAVSGGSISSDNWWSWVRQAPGKGLEWIGEIYHTGSTSYNPSLKSRVTISLDKSKNHFSLKLNSLTAADTAVYYCAGKKWELLGFRFDPWGQGTLVTVSS VL: NFMLTQPPSVSAAPGQKVTISCSGSNSNIGNNFVSWYQQLPGTAPKLLIYDNNERPSGIPDRFSGSKSVTSATLGITGLQTGDEADYYCGTWDNSLGMVVFGGGTKLTVL", "values": [
      {"measurement": "Kd", "value": "> 100", "unit": "nM"}
    ]},
    {"binder": "ADI-49037 (antibody, V domains shown, full-length IgG) VH: EVQLVESGGGVVQPGRSLRLSCAASGFTLSSYVMHWVRQAPGKGLEWVAVISSDGTNKYYADSVKGRFTISRDSSKNTLYLQMNSLRPEDSAVYYCARGQPDYWGQGTLVTVSS VL: EIVLTQSPATLSLSPGERATLSCRASQSVSNYFAWYQQKPGQAPRLLIYGASNRATGVPARFSGSGSGTDFTLTISSLEPEDFAVYYCQQRSNWPYTFGQGTKVEIK", "values": [
      {"measurement": "Kd", "value": 3.53, "unit": "nM"}
    ]},
    {"binder": "ADI-42226 (antibody, V domains shown, full-length IgG) VH: EVQLLESGGGLVQPGGSLRLSCAASGFIFSDHYMDWVRQAPGKGLEWVGRIRNKPNSYTTDYAAYVKGRFSISRDDSKNSLFLQMNSLKTEDTAVYYCARVVNGLDVWGQGTTVTVSS VL: SYELTQPPSVSVSPGQTARITCSGDALPKQYAYWYQQKPGQAPVLVIYKDTERPSGIPERFSGSSSGTTVTLTISGVQAEDEADYYCQSADSSVADSSVVFGGGTKLTVL", "values": [
      {"measurement": "Kd", "value": 0.843, "unit": "nM"}
    ]},
    {"binder": "ADI-42810 (antibody, V domains shown, full-length IgG) VH: QVQLVESGAEEKKPGASVKVSCKASGYTFTSYAMHWVRQAPGQRLEWMGWINAGNGNTKYSQKFQGRVTITRDTSASTAYMELSSLRSEDTAVYYCARQWLGHFDYWGQGTLVTVSS VL: QSALTQPASVSGSPGQSITISCTGTSSDVGGYNYVSWYQQHPGKAPKLMIYEVSNRPSGVSNRFSGSKSGNTASLTISGLQAEDEADYYCSSYTSSSTYVFGTGTKVTVL", "values": [
      {"measurement": "Kd", "value": "> 100", "unit": "nM"}
    ]},
    {"binder": "ADI-49137 (antibody, V domains shown, full-length IgG; also called Antibody Number 126) VH: EVQLVESGGGLVQPGGSLRLSCAASGFIFSDHYMAWVRQAPGKGLEWVGHVGNKANTYTTEYAASVKGRFTISRDDSKKSLYLQMNRLKSEDTAVYYCARVFSYYLDYWGQGTPVTVSS VL: EIVLTQSPGTLALSPGERATLSCRASQSVSSYLAWYQQKPGQAPRLLIYDSSNRATGIPARFSGSGSGTDFTLTISSLEPEDFAVYYCQQPGNWPPAFTFGGGTKLEIK", "values": [
      {"measurement": "Kd", "value": 0.854, "unit": "nM"}
    ]}
  ]
}
